Source: paper PMC8835488, “Production and Biochemical Characterization of Dimeric Recombinant Gremlin-1” (International Journal of Molecular Sciences, 2022)

Legend:
[1] = target: the molecule itself; assay: non-reducing SDS-PAGE with anti-gremlin Western blot; IMAC-purified gremlin (250 mM imidazole eluate), SDS-PAGE without DTT; shows disulfide-bound dimer beside monomer
[2] = target: the molecule itself; assay: non-reducing SDS-PAGE; bought 10xHis-tagged gremlin from murine myeloma cells, several batches (Figure S1); SDS-PAGE under reducing or non-reducing conditions

Row | Protein | dimer vs. monomer ratio [1] [%] | stoichiometry N [1] | stoichiometry N [2]
1 | recombinant rat gremlin-1 with C-terminal hexa-histidine tag (pcDNA3-Gremlin-1-HisTag) (natural protein, UniProt O35793 25-184, looked up, N-glycosylated in part (glycosylated ~30–45%, non-glycosylated ~70–55% of the protein), gremlin-1, rat; secreted protein; the 0.8–0.9 M NaCl heparin-sepharose fractions hold the dimer; also called IMAC-purified gremlin; IMAC gremlin; source: HEK293T, transiently transfected, secreted into the supernatant; purified by IMAC (Ni2+ column), when indicated followed by heparin-sepharose chromatography; not shown: His6, C-terminal, kept) KKKGSQGAIPPPDKAQHNDSEQTQSPPQPGSRTRGRGQGRGTAMPGEEVLESSQEALHVTERKYLKRDWCKTQPLKQTIHEEGCNSRTIINRFCYGQCNSFYIPRHIRKEEGSFQSCSFCKPKKFTTMMVTLNCPELQPPTKKKRVTRVKQCRCISIDLD | ~20 | 2 | –
2 | 10xhis-tagged gremlin expressed in murine myeloma cells (recombinant human gremlin-1 purchased from R&D) (natural protein, UniProt O60565 25-184, looked up, gremlin-1, human; No catalogue number is printed; source: bought: R&D; expressed in murine myeloma cells, IMAC-purified) KKKGSQGAIPPPDKAQHNDSEQTQSPQQPGSRNRGRGQGRGTAMPGEEVLESSQEALHVTERKYLKRDWCKTQPLKQTIHEEGCNSRTIINRFCYGQCNSFYIPRHIRKEEGSFQSCSFCKPKKFTTMMVTLNCPELQPPTKKKRVTRVKQCRCISIDLD | – | – | 2
